The values that follow come from publication PMC5245964.

Holding throughout (assay): AUC; sedimentation velocity, 42,000 rpm, 20°C, 0.3–0.5 mg/mL in buffer HST300, continuous c(s) distribution (SEDFIT)
For experiment [1], the target named is MBP-Mis18β (insect-cell-expressed) (human) (UniProt O43482).
Experiment [2] addresses Mis18α:Mis18β complex (insect-cell-expressed) (human) (UniProt Q9NYP9). Particulars: scale: M18BP1^1–140-MBP per Mis18α:Mis18β hexamer.
Experiment [3] addresses 6His-Mis18β (insect-cell-expressed) (human) (UniProt O43482).
Experiment [4] addresses Mis18β (insect-cell-expressed, untagged) (human) (UniProt O43482).

Sequence of 6His-Mis18α (insect-cell-expressed) (Q9NYP9 whole entry): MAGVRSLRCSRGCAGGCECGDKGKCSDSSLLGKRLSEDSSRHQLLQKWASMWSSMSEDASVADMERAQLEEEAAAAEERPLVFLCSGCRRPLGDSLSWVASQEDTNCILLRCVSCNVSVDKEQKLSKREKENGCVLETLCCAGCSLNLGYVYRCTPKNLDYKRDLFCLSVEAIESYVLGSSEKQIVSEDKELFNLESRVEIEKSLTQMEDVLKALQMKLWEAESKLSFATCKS
Sequence of MBP-Mis18α (insect-cell-expressed) (Q9NYP9 whole entry): as above
Sequence of Mis18α (insect-cell-expressed, 6His cleaved) (Q9NYP9 whole entry): as above
Sequence of Mis18α:Mis18β complex (insect-cell-expressed) (human) (Q9NYP9 whole entry, chain 1 of 2): as the sequence (Q9NYP9 whole entry) above
Sequence of Mis18α:Mis18β complex (insect-cell-expressed) (human) (O43482 whole entry, chain 2 of 2, further chain): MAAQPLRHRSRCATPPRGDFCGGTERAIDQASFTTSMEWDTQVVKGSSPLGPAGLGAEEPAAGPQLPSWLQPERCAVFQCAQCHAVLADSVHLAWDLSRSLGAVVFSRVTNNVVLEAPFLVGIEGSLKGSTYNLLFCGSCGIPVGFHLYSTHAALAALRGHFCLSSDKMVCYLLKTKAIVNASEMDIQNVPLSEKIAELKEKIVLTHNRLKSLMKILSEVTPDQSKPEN
Sequence of M18BP1^1–140-MBP (Q6P0N0 1-140): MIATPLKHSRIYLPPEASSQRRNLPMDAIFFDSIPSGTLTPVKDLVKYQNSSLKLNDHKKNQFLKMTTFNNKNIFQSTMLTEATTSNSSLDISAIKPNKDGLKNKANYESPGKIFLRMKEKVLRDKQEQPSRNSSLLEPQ
Sequence of 6His-Mis18β (insect-cell-expressed) (human) (O43482 whole entry): as the sequence (O43482 whole entry, chain 2 of 2, further chain) above
Sequence of Mis18β (insect-cell-expressed, untagged) (human) (O43482 whole entry): as the sequence (O43482 whole entry, chain 2 of 2, further chain) above
Sequence of MBP-Mis18β (insect-cell-expressed) (human) (O43482 whole entry): as the sequence (O43482 whole entry, chain 2 of 2, further chain) above

For the substance “6His-Mis18α (insect-cell-expressed) (from UniProt Q9NYP9 1-233) (natural protein)”, the stoichiometry N (MBP-Mis18β per complex) in experiment [1] is 2.

The term stoichiometry N denotes a count of units in the complex or per binding partner. With “M18BP1^1–140-MBP (from UniProt Q6P0N0 1-140) (domain or fragment)”, the stoichiometry N in experiment [2] was found to be 2.

Consider “MBP-Mis18α (insect-cell-expressed) (from UniProt Q9NYP9 1-233) (natural protein)”, for which the stoichiometry N (MBP-Mis18α per complex) in experiment [3] turned out to be 4.

The substance “Mis18α (insect-cell-expressed, 6His cleaved) (from UniProt Q9NYP9 1-233) (natural protein)” registered a stoichiometry N (Mis18α per Mis18β (4:2 hexamer)) in experiment [4] of 2.
